Patent US12404328 (CULLINAN MANAGEMENT, dated 2025)
Each block holds one binder with its values, some of them ahead of it.

Assays:
[1] = molecular target: T1, monomeric CD19 extracellular domain (UniProt P15391 20-291, limits assumed); assay: SPR as printed, ForteBio instrument (per Estep et al. 2013); monomeric CD19 extracellular domain; monomeric CD19 protein
T1 construct: extracellular domain; also called monomeric CD19 protein
T1 sequence (looked up): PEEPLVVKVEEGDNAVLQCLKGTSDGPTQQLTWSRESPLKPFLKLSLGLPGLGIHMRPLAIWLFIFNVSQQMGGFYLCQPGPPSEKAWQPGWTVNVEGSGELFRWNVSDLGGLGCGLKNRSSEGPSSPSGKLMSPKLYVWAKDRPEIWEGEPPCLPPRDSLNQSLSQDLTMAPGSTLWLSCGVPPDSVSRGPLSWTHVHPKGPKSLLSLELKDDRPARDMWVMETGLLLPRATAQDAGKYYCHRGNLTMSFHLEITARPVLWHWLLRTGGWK
Procedure: (§1) As noted above, the constructs produced contained an anti-CD19 scFv having the amino acid sequence set forth in SEQ ID NO: 9 or 18. The binding affinity of the two CD19 binding domains to CD19 were measured by SPR using a monomeric CD19 extracellular domain and a dimeric CD19 extracellular domain fused with human IgG1 Fc. Binding kinetic parameters were measured using an instrument (available under the tradename ForteBio™ from Pall Corporation®) generally as previously described (see, Estep et al. (2013) MAbs, 5 (2): 270-78).

[2] = molecular target: T2, dimeric CD19 extracellular domain fused with human IgG1 Fc (human, UniProt P15391 20-291, limits assumed); assay: SPR as printed, ForteBio instrument (per Estep et al. 2013); dimeric CD19 extracellular domain-human IgG1 Fc; dimeric CD19 protein (IgG1 Fc fusion)
T2 construct: extracellular domain; also called dimeric CD19 protein; not shown: human IgG1 Fc
T2 sequence (looked up): T1 sequence (looked up)
Procedure: as §1

Kd [1]: 7 nM | Kd [2]: 5 nM
B1: CD19 binding domain having the sequence of SEQ ID NO: 9 (scFv)
scFv: QVQLVQSGAEVKKPGASVKVSCKASGYTFTDYIMHWVRQAPGQGLEWMGYINPYNDGSKYTEKFQGRVTMTSDTSISTAYMELSRLRSDDTAVYYCARGTYYYGPQLFDYWGQGTTVTVSSGGGGSGGGGSGGGGSDIVMTQTPLSLSVTPGQPASISCKSSQSLETSTGTTYLNWYLQKPGQSPQLLIYRVSKRFSGVPDRFSGSGSGTDFTLKISRVEAEDVGVYYCLQLLEDPYTFGQGTKLEIK
notes: also called Roche mAb scFv

Kd [1]: 11 nM | Kd [2]: 15 nM
B2: CD19 binding domain having the sequence of SEQ ID NO: 18 (scFv)
scFv: QVQLQESGPGLVKPSQTLSLTCTVSGGSISTSGMGVGWIRQHPGKGLEWIGHIWWDDDKRYNPALKSRVTISVDTSKNQFSLKLSSVTAADTAVYYCARMELWSYYFDYWGQGTLVTVSSGGGGSGGGGSGGGGSEIVLTQSPATLSLSPGERATLSCSASSSVSYMHWYQQKPGQAPRLLIYDTSKLASGIPARFSGSGSGTDFTLTISSLEPEDFAVYYCFQGSVYPFTFGQGTKLEIKR
notes: also called SG mAb scFv
